Biological target: the molecule itself
Experiment: SEC

B1: Histidine-tagged M. tuberculosis ThyA (thymidylate synthase) (enzyme)
chain: MSIVTPYEDLLRFVLETGTPKSDRTGTGTRSLFGQQMRYDLSAGFPLLTTKKVHFKSVAYELLWFLRGDSNIGWLHEHGVTIWDEWASDTGELGPIYGVQWRSWPAPSGEHIDQISAALDLLRTDPDSRRIIVSAWNVGEIERMALPPCHAFFQFYVADGRLSCQLYQRSADLFLGVPFNIASYALLTHMMAAQAGLSVGEFIWTGGDCHIYDNHVEQVRLQLSREPRPYPKLLLADRDSIFEYTYEDIVVKNYDPHPAIKAPVAV
notes: also called conventional thymidylate synthase
stoichiometry N: 2

From paper PMC2386288, “Kinetics and Ligand-Binding Preferences of Mycobacterium tuberculosis Thymidylate Synthases, ThyA and ThyX” (PLoS ONE, 2008)
